Laboratory results from paper doi:10.1101/2025.10.03.680274.

Experiments:
Assay in all cases: split reporter
[1] = molecular target: ADGRL4-CTF1 F409A (human) (UniProt Q9HBW9)
[2] = molecular target: ADGRL4-CTF1 H408A (human) (UniProt Q9HBW9)
[3] = molecular target: ADGRL4-CTF1 I411A (human) (UniProt Q9HBW9)
[4] = molecular target: ADGRL4-CTF1 L412A (human) (UniProt Q9HBW9)
[5] = molecular target: ADGRL4-CTF1 S414A (human) (UniProt Q9HBW9)

Question: Which results are given for “LgBiT-mini-Gq (mini-Gs/q version 70) (domain or fragment)”?
Answer: Gq coupling as percent of wild-type CTF1 [1]: 12%; reduction of Gq coupling relative to wild-type CTF1 [2]: > 50%; reduction of Gq coupling relative to wild-type CTF1 [3]: > 50%; reduction of Gq coupling relative to wild-type CTF1 [4]: > 50%; reduction of Gq coupling relative to wild-type CTF1 [5]: > 50%
